Source: patent US20100172907A1 (Hoffmann-La Roche, published 2010)
Groups on a side chain read outwards from the residue. No end group written: not given here. NSMP = not defined here

T1: BSA-conjugated Aβ heptapeptide FFAEDVC (C-terminal Cys coupled to NSMP-activated BSA)
T1 construct: also called Peptide 19-24
T1 peptide: FFAEDVC

T2: BSA-conjugated Aβ heptapeptide AEFRHDC (C-terminal Cys coupled to NSMP-activated BSA)
T2 construct: also called Peptide 2-7
T2 peptide: AEFRHDC

T3: BSA-conjugated Aβ heptapeptide LVFFAEC (reading uncertain; also: BSA conjugate)
T3 construct: also called Peptide 17-22
T3 peptide: LVFFAEC([NSMP-BSA])

T4: BSA-conjugated Aβ heptapeptide VFFAEDC (C-terminal Cys coupled to NSMP-activated BSA)
T4 construct: also called Peptide 18-23
T4 peptide: VFFAEDC

B1: MS-Roche #3.4.H2 Fab (Fab, V domains shown)
VH: QVQLVESGGGLVQPGGSLRLSCAASGFTFSSYAMSWVRQAPGKGLEWVSVIDMVGHTYYADSVKGRFTISRDNSKNTLYLQMNSLRAEDTAVYYCARLTHYARYYRYFDVWGQGTLVTVSS
VL: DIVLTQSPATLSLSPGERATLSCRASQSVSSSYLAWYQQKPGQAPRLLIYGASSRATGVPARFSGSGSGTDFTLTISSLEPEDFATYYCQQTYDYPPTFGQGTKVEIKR
notes: H-CDR2 printed with 16 residues
B2: MS-Roche #7.4.H1 Fab (Fab, V domains shown)
VH: QVQLVESGGGLVQPGGSLRLSCAASGFTFSSYAMSWVRQAPGKGLEWVSAINATGYRTYYADSVKGRFTISRDNSKNTLYLQMNSLRAEDTAVYYCARGKGNTHKPYGYVRYFDVWGQGTLVTVSS
VL: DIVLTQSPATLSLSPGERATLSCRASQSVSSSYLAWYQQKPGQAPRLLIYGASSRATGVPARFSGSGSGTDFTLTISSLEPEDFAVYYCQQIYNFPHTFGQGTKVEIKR
B3: MS-Roche #7.12.L1 Fab (Fab, V domains shown)
VH: QVQLVESGGGLVQPGGSLRLSCAASGFTFSSYGMSWVRQAPGKGLEWVSNISGSGSSTYYADSVKGRFTISRDNSKNTLYLQMNSLRAEDTAVYYCARGKGNTHKPYGYVRYFDVWGQGTLVTVSS
VL: DIVLTQSPATLSLSPGERATLSCRASQYVFRRYLAWYQQKPGQAPRLLISGSSNRATGVPARFSGSGSGTDFTLTISSLEPEDFAVYYCLQLYNIPNTFGQGTKVEIKR
B4: MS-Roche #7.9.H1 Fab (Fab, V domains shown)
VH: QVQLVESGGGLVQPGGSLRLSCAASGFTFSSYAMSWVRQAPGKGLEWVSAINANGQRKFYADSVKGRFTISRDNSKNTLYLQMNSLRAEDTAVYYCARGKGNTHKPYGYVRYFDVWGQGTLVTVSS
VL: DIVLTQSPATLSLSPGERATLSCRASQSVSSSYLAWYQQKPGQAPRLLIYGASSRATGVPARFSGSGSGTDFTLTISSLEPEDFATYYCLQIYNMPITFGQGTKVEIKR
notes: assembled
B5: MS-Roche #3.4.L9 Fab (Fab, V domains shown)
VH: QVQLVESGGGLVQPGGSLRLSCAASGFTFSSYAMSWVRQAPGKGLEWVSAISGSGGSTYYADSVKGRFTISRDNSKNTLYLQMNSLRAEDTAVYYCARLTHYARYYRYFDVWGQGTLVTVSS
VL: DIVLTQSPATLSLSPGERATLSCRASRRIHVYYLAWYQQKPGQAPRLLIYGASSRATGVPARFSGSGSGTDFTLTISSLEPEDFATYYCQQTYDYPPTFGQGTKVEIKR
B6: MS-Roche #3.6.H3 Fab (Fab, V domains shown)
VH: QVQLVESGGGLVQPGGSLRLSCAASGFTFSSYAMSWVRQAPGKGLEWVSVISETGKFIYYADSVKGRFTISRDNSKNTLYLQMNSLRAEDTAVYYCARLTHYARYYRYFDVWGQGTLVTVSS
VL: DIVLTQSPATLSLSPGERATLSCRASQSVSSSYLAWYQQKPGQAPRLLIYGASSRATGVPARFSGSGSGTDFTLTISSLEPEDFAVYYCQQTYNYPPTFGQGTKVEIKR
B7: MS-Roche #3.6.L2 Fab (Fab, V domains shown)
VH: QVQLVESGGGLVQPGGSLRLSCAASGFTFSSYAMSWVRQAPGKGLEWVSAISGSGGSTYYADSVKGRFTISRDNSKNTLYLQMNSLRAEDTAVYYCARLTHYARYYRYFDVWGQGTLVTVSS
VL: DIVLTQSPATLSLSPGERATLSCRASQFLSRYYLAWYQQKPGQAPRLLIYGASSRATGVPARFSGSGSGTDFTLTISSLEPEDFAVYYCQQTYNYPPTFGQGTKVEIKR
B8: MS-Roche #3.4.H7 Fab (Fab, V domains shown)
VH: QVQLVESGGGLVQPGGSLRLSCAASGFTFSSYAMSWVRQAPGKGLEWVSVISETGKNIYYADSVKGRFTISRDNSKNTLYLQMNSLRAEDTAVYYCARLTHYARYYRYFDVWGQGTLVTVSS
VL: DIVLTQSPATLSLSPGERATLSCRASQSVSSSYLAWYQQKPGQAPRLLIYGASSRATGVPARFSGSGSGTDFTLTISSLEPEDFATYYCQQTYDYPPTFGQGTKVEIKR

Experiments:
[1] = target: T1, BSA-conjugated Aβ heptapeptide FFAEDVC; experiment: ELISA
Experimental: (§1) 50 μl of NSMP activated BSA (6.7 mg/ml) was diluted with 50 μl of PBS, 0.1% sodium azide and 10 μl of peptide solution (1 mM in DMSO) was added. As negative control activated BSA was mock-treated without peptide addition. After 4 hrs at room temperature the reaction was stopped by addition of 10 μl of 10 mM Cystein. An aliquot of the conjugate reaction mixture was diluted 1:100 with 0.1M sodium bicarbonate buffer and immediately filled into the wells (100 μl) of ELISA plates (Nunc Immuno-Plate). After standing 16 hrs at 4° C. 100 μl blocking buffer (as above) was added to each well and incubated for another 30 minutes. The plates were washed with 2×300 μl/well TBST (as above) and filled with 100 μl antibody at 10 μg/ml or 2 μg/ml in blocking buffer. The plates were kept 16 hours at 4° C. and washed with 2×300 μl TBST. 100 μl/well HRP-conjugated anti-human Ig H+L (Pierce, dilution 1:1000 with blocking buffer) was added and incubated for 1 hour at ambient temperature. The plates were washed with 3×300 μl/well TBST. Colour development was started by addition of 100 μl tetra-methyl benzidine/hydrogen peroxide reagent.

[2] = target: T2, BSA-conjugated Aβ heptapeptide AEFRHDC; experiment: ELISA
Experimental: as §1

[3] = target: T3, BSA-conjugated Aβ heptapeptide LVFFAEC; experiment: ELISA
Experimental: as §1

[4] = target: T4, BSA-conjugated Aβ heptapeptide VFFAEDC; experiment: ELISA
Experimental: as §1

[5] = target: T5, Aβ (1-42) peptide (human); experiment: SPR, immobilized fibers;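 further: biacore SPR using in vitro grown Aβ1-40 or Aβ1-42 fibrils immobilized on the chip with Fab analytes, KD from koff/kon fits or equilibrium isotherms based on total Fab concentration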
T5 construct: also called Aβ1-42 fibers; Aβ4
Experimental: (§2) Biacore2000 and Biacore3000 instruments were used for these measurements. Aβ1-40 and Aβ1-42 fibers were generated in vitro by incubation of synthetic peptides at a concentration of 200 μg/ml in 10 mM Na-acetate buffer (pH 4.0) for three days at 37° C. […] For binders with slow kinetics KD values were calculated by curve fitting of the time-dependent sensor responses, i.e. from the ratio of koff/kₒₙ. Binders with fast kinetics were analyzed by fitting the concentration-dependent sensor responses at equilibrium (adsorption-isotherms). KD values were calculated from the Biacore sensograms based on the total Fab concentration as determined by a protein assay. […] Briefly, time-dependent protein binding to Aβ1-40 fibers immobilized on the Biacore chip was measured during the association phase under mass-limited conditions at different flow rates of the analyte solution.

[6] = target: T6, human Aβ (1-40) peptide (human); experiment: SPR, immobilized fibers;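 further: biacore SPR using in vitro grown Aβ1-40 or Aβ1-42 fibrils immobilized on the chip with Fab analytes, KD from koff/kon fits or equilibrium isotherms based on total Fab concentration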
T6 construct: also called Aβ1-40 fibers
Experimental: as §2
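Wherever OD ratio 17-22/BSA is given: ELISA of antibody at 10 or 2 µg/ml binding plate-coated BSA–peptide conjugates, detected with HRP anti-human Ig and TMB colour, mock-treated BSA without peptide as negative control.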
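Wherever OD ratio 19-24/BSA is given: ELISA of antibody at 10 or 2 µg/ml binding plate-coated BSA–peptide conjugates, detected with HRP anti-human Ig and TMB colour, mock-treated BSA without peptide as negative control.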
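Wherever OD ratio 2-7/BSA is given: ELISA of antibody at 10 or 2 µg/ml binding plate-coated BSA–peptide conjugates, detected with HRP anti-human Ig and TMB colour, mock-treated BSA without peptide as negative control.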
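Wherever Peptide-ratio 19-24/2-7 is given: ELISA of antibody at 10 or 2 µg/ml binding plate-coated BSA–peptide conjugates, detected with HRP anti-human Ig and TMB colour, mock-treated BSA without peptide as negative control.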

Row | Binder | OD ratio 19-24/BSA [1] | Peptide-ratio 19-24/2-7 [1] | OD ratio 2-7/BSA [2] | OD ratio 17-22/BSA [3] | Peptide-ratio 17-22/2-7 [3] | OD ratio 18-23/BSA [4] | Peptide-ratio 18-23/2-7 [4] | Kd [5] [nM] | Kd [6] [nM]
1 | B1 | 1 | 0.06 | 16 | 11 | 0.69 | 1 | 0.06 |  | 
2 | B2 | 16 | 0.51 | 31 | 16 | 0.52 | 20 | 0.65 |  | 
3 | B3 | 10 | 0.59 | 16 | 10 | 0.6 | 12 | 0.7 | 3.8 | 
4 | B4 | 6 | 0.19 | 32 | 7 | 0.23 | 12 | 0.36 |  | 
5 | B5 |  |  |  |  |  |  |  | 9.1 | 16.3
6 | B6 |  |  |  |  |  |  |  | 7.5 | 5.4
7 | B7 |  |  |  |  |  |  |  | 13.1 | 13.7
8 | B8 | 5 | 0.21 | 24 |  |  | 6 | 0.25 | 31.7 | 19.2
